Legend:
[1] = molecular target: Hoc- Soc- bacteriophage T4 capsid (Soc binding sites) (bacteriophage T4) (UniProt P04535)
[2] = molecular target: Hoc- Soc- bacteriophage T4 capsid (Soc binding sites) (bacteriophage T4) (UniProt P04535); test: in vitro binding to Hoc- Soc- T4 phage, SDS-PAGE

Substance | Kd [1] [nM] | percent occupancy of the 870 Soc binding sites [1] [%] | ratio of antigen molecules to Soc binding sites at saturation (antigen molecules : Soc binding sites) [2]
F1mutV-Soc (66 kDa) recombinant protein with RB49 Soc | 298 | 75 | 20
Soc-PA (93 kDa) recombinant protein with RB49 Soc | 737 | 42 | 20

Reference: US20180264102A1
